Measured values reported in PMC12540712.

Target: And-1 HMG domain, 984-1129 (UniProt O75717)
Assay: GST-HMG pull-down of SepB, immunoblot
Conditions: reference: wild-type SepB; sites T826

- binding against the reference: stronger
Substance: And-1 SepB domain, 330-984 (from UniProt O75717) T826A SepB
